In patent US20250313611A1 one finds GM IC50 in ng/mL (GSD factor), live virus microneutralisation and IC50 (read off the curve) data, which are given here for four substances.

The target in test [1] is spike protein of authentic SARS-COV-2 Delta virus (SARS-CoV-2 Delta). The test is described as follows: cell-based or functional assay.
In test [2] the target is spike protein of authentic SARS-COV-2 Omicron BA.2 virus (SARS-CoV-2 Omicron BA.2). In words: cell-based or functional assay.
The target in test [3] is spike protein of authentic SARS-COV-2 Omicron BA.1 virus (SARS-CoV-2 Omicron BA.1). In words: cell-based or functional assay.
Test [4] addresses spike protein of authentic SARS-COV-2 614G virus (SARS-CoV-2 614G) (UniProt P0DTC2). In words: cell-based or functional assay.
Test [5] addresses spike protein of authentic SARS-COV-2 Omicron BA.5 virus (SARS-CoV-2 Omicron BA.5). In words: cell-based or functional assay.
Test [6] addresses SARS-COV-2 spike [change] trimer ([change]-foldon-His-Strep) (SARS-CoV-2 (Wuhan)) (UniProt P0DTC2).

For the substance “Bebtelovimab Biosimilar (PX-TA1750) (antibody)”, the GM IC50 in ng/mL (GSD factor), live virus microneutralisation in test [1] turned out to be 1.6 ng/mL; in test [2], 1.7 ng/mL; in test [3] it was 2.5 ng/mL; in test [4], 3.8 ng/mL; in test [5], 2.4 ng/mL.

With CB6 monoclonal antibody, in test [6], the IC50 (read off the curve) worked out at 0.05 µg/mL.

“cilgavimab Biosimilar (PX-TA1033) (antibody)”: the GM IC50 in ng/mL (GSD factor), live virus microneutralisation is 28.8 ng/mL in test [1], 21.2 ng/mL in test [2], 156 ng/mL in test [3] and 30.9 ng/mL in test [4].

Take “sotrovimab Biosimilar (PX-TA1637) (antibody)”: the GM IC50 in ng/mL (GSD factor), live virus microneutralisation is 141 ng/mL in test [1]; 7150 ng/mL in test [2]; 1100 ng/mL in test [3]; 205 ng/mL in test [4]; greater than 10000 ng/mL in test [5].
